Reference: patent US20110014616

Key:
Test in all cases: cell_activity
[1] = system: WAS-specific ZFN pair (synthetic construct); settings: K562, Cel-1 assay, day 3
[2] = system: Factor IX-specific ZFN pair (synthetic construct); settings: K562, unsorted, Cel-1 assay; 40.79% after SSA sorting
[3] = system: CCR5-specific ZFN pair (synthetic construct); settings: K562, unsorted, Cel-1 assay; 37.5% after SSA sorting

## WAS ZFN target site
[1]
  activity: 17.9 % NHEJ

## Factor IX ZFN target site
[2]
  activity: 17.9 % NHEJ

## CCR5 ZFN target site
[3]
  activity: 25 % NHEJ
